Measurements published in patent US8945864B2, “Method of determining 1,5-anhydroglucitol, and reagent composition for determining 1,5-anhydroglucitol” (Ikeda Food Research Co., Ltd., priority 2006, dated 2015).

Key:
[1] = substrate: OC[C@H]1OC[C@H](O)[C@@H](O)[C@@H]1O; assay: Km value of sorbose dehydrogenase; type: biochemical, Sinorhizobium sp. 97507; conditions: other: Km of the sorbose dehydrogenase to the substrate; pH 7.0; 37.0 °C
Experimental: (§1) One mL of a 0.1 M potassium phosphate buffer, pH 7.0, 1.0 mL of 1.0 M L-sorbose, 0.14 mL of 3 mM 2,6-dichlorophenol indophenol (DCIP), 0.2 mL of 3 mM 1-methoxy-5-methylphenazinium methyl sulfate, and 0.61 mL of water were added to a 3 mL quartz cell, and the quartz cell was set to a spectrophotometer equipped with a thermostat cell holder, and incubated at 37° C. for ten minutes. Then, 0.05 mL of the enzyme solution was added to the quartz cell, and changes in absorbance of DCIP at 600 nm (AABS600/min) was measured at 37° C. As the molar extinction coefficient of DCIP at pH 7.0 is known as 16.3 mM^−1, and the amount of enzyme that reduced 1 μmol of DCIP for one minute is defined as one unit. Following the definition, the concentration of enzyme activity was calculated based on the following equation. enzyme activity (units/mL)=(−ΔABS600/min×3.0×dilution rate)/(16.3×1.0×0.05)
(§2) Measurement conditions in the above “method of measuring enzyme activity” were suitably modified as necessary, and the optimal pH, pH stability, optimal temperature, temperature stability, substrate specificity, Km value, total molecular weight, subunit molecular weight, inhibitor, and product of the enzyme reaction were identified. The properties of the enzyme were evaluated in accordance with the following tests.
[…]. […]

[2] = substrate: OCC1(O)OC[C@H](O)[C@@H](O)[C@@H]1O; assay: Km value of sorbose dehydrogenase; type: biochemical, Sinorhizobium sp. 97507; conditions: other: Km of the sorbose dehydrogenase to the substrate; pH 7.0; 37.0 °C
Experimental: as §1, §2
[…]. […]

[3] = Optimal pH of sorbose dehydrogenase; type: biochemical; conditions: buffers pH 3.71-9.11, 33.3 mM; FIG. 3
[4] = Optimal temperature of sorbose dehydrogenase; type: biochemical; conditions: 50 mM potassium phosphate buffer, pH 7.0; 35° C. to 70° C.; FIG. 5
[5] = Temperature stability of sorbose dehydrogenase; type: physicochemical; conditions: pH 7.0, FIG. 6

B1: sorbose dehydrogenase (Sinorhizobium meliloti 1021) (protein)
chain: MMEGFDYVIVGGGSSGCVLAARLSENPSVRVCLIEAGGRDRHPLIHMPVGFAKLTAGPMTWGLTTAPQKHANNREIPYAQARVLGGGSSINAEVYTRGHPRDYDRWVEEGADGWSFQEVKPYFLRSEGNTILSGEWHGTDGPLGVSNLPDPQPMTRAFVQSCQELGIPYNPDFNGPVQEGAGVYQTTIRNSRRCSAAVGYLRPALARKNLMLITGALVLRIVFQGRRAVGVEYSTGGAAKIARAESEVLVTSGAIGTPKLMMLSGVGPAASLRSHGIDVVQDMAGVGQNLHDHFGVDIVAELKGHDSLDKYNKFHWMLLAGIEYALFKSGPVASNVVEGGAFWYGDRASPYPDLQFHFLAGAGAEAGVPSVPKGSSGVTLNSYTVRPKSRGSVTLRSADPRALPIVDPNFLDDPDDLRISVEGIRISREIFGQPSLQKYIKTIRFPDESVRTQADFEAYARQYGRTSYHPTCTCKMGRDDMSVVDPQLRVHGLDGIRICDSSVMPSLVGSNTNAATIMIGEKAADLIRGNI
Km [1]: 82.5 mM
Km [2]: 65.6 mM

B2: sorbose dehydrogenase: recombinant sorbose dehydrogenase from Sinorhizobium sp. 97507, amino acid sequence SEQ ID NO: 2, produced in E. coli JM109/pUCNNT2_AGD1 (protein)
chain: B1 chain
modifications: Sinorhizobium sp. 97507
Optimal pH [3]: 8.0
Optimal temperature [4]: around 60 °C
Residual ratio of enzyme activity ([5]; 45° C. for ten minutes): 77%
Temperature at which the enzyme is stable ([5]; ten minutes): ≤ 45 °C
